For this assay, the target named is coconut protein (coconut). Briefly: ITC; Malvern MicroCal PEAQ-ITC; cell 200 uL with the low-concentration solution, syringe with the high-concentration solution (not told which held which); 13 injections of 3 uL; both solutions dialysed; fit with two sets of constants (N1/N2, K1, K2).

Consider gelatin, for which the K1 was 4.33 µM, the K2 amounted to 136 µM, the N1 is 2.69 and the N2 stood at 1.51. The substance further yielded a dH1 of -2.75 kcal/mol and a dH2 of -1.52 kcal/mol.

The values above are taken from article PMC9105436.
